Measurements as given in US7304127.

These binders were tested against HIV-1LAI envelope gp120 labeled with radioactive iodine (HIV-1 LAI), P03377 (assay: 125I-gp120, peptide array).

First: RNYLLVFFQKHIAKRFCK (modifications not checked) [CCR5 305-322]
Second: LPPLYSLVFIFGFVGNML (modifications not checked) [CCR5 33-50]
The counts minus background (counts per 20 min) of the first is lower: 65 for the first, 705 for the second.

First: NPIIYAFVGEKFRNYLLV (modifications not checked) [CCR5 293-310]
Second: GSGDYDSMKEPCFREENA (modifications not checked) [CXCR4 17-34]
The counts minus background (counts per 20 min) of the first is higher: 162 for the first, -28 for the second.

First: CKCCSIFQQEAPERASSV (modifications not checked) [CCR5 321-338]
Second: QKHIAKRFCKCCSIFQQE (modifications not checked) [CCR5 313-330]
The counts minus background (counts per 20 min) of the first is higher: 53 for the first, 23 for the second.

Going from ERASSVYTRSTGEQEISV (modifications not checked) [CCR5 333-350] to GEKFRNYLLVFFQKHIAK (modifications not checked) [CCR5 301-318], the counts minus background (counts per 20 min) falls from 84 to 69.

Going from MEGISIYTSDNYTEEMGS (modifications not checked) [CXCR4 1-18] to TEEMGSGDYDSMKEPCFR (modifications not checked) [CXCR4 13-30], the counts minus background (counts per 20 min) falls from 2590 to 41.

First: SVYTRSTGEQEISVGL (modifications not checked) [CCR5 337-352]
Second: QEAPERASSVYTRSTGEQ (modifications not checked) [CCR5 329-346]
The counts minus background (counts per 20 min) of the first is lower: 47 for the first, 84 for the second.

Going from SIYTSDNYTEEMGSGDYD (modifications not checked) [CXCR4 5-22] to LGMTHCCINPIIYAFVGE (modifications not checked) [CCR5 285-302], the counts minus background (counts per 20 min) rises from 71 to 282.

First: FREENANFNKIFLPTIYS (modifications not checked) [CXCR4 29-46]
Second: VTETLGMTHCCINPIIYA (modifications not checked) [CCR5 281-298]
The counts minus background (counts per 20 min) of the first is higher: 51 for the first, 15 for the second.

Compared with QAMQVTETLGMTHCCINP (modifications not checked) [CCR5 277-294], YDSMKEPCFREENANFNK (modifications not checked) [CXCR4 21-38] is lower in counts minus background (counts per 20 min): 81 for the first, 53 for the second.

Going from KEPCFREENANFNKIFLP (modifications not checked) [CXCR4 25-42] to SDNYTEEMGSGDYDSMKE (modifications not checked) [CXCR4 9-26], the counts minus background (counts per 20 min) falls from 252 to 43.

Going from HCCINPIIYAFVGEKFRN (modifications not checked) [CCR5 289-306] to NANFNKIFLPTIYSIIFL (modifications not checked) [CXCR4 33-50], the counts minus background (counts per 20 min) falls from 200 to 173.

First: LVFFQKHIAKRFCKCCSI (modifications not checked) [CCR5 309-326]
Second: AKRFCKCCSIFQQEAPER (modifications not checked) [CCR5 317-334]
The counts minus background (counts per 20 min) of the first is higher: 76 for the first, 64 for the second.

First: YAFVGEKFRNYLLVFFQK (modifications not checked) [CCR5 297-314]
Second: AARLLPPLYSLVFIFGFV (modifications not checked) [CCR5 29-46]
The counts minus background (counts per 20 min) of the first is higher: 596 for the first, 33 for the second.
